Measurements published in the supplement of paper PMC12764529.
± gives the half width of the 95% confidence interval.

Key:
[1] = folding stability dG unfold (combined trypsin and chymotrypsin); higher = more stable
How it was run: (§1)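 Unfolding free energy was derived, per protease or combined, by relating Bayesian-fitted K50 values from sequencing counts to a sequence-predicted unfolded-state K50 and a shared folded-state K50. The underlying digests exposed cysteine-free mini-proteins under 80 residues, in a PA-tagged cDNA display construct, to trypsin and chymotrypsin at 11 threefold-diluted concentrations and to a no-protease condition. A filter kept only designs with AlphaFold2 dimer inter-PAE above 15.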

[2] = folding stability dG unfold from trypsin proteolysis; higher = more stable
How it was run: as §1

[3] = folding stability dG unfold from chymotrypsin proteolysis; higher = more stable
How it was run: as §1

Row | Sequence | folding stability dG unfold [1] | folding stability dG unfold [2] | folding stability dG unfold [3]
1 | SAGGMMEIEVEIEKLEDGTYRIRIRVRLPNGEEVEKEMTFDRETGTLTITFDRPIEPDQIVEIEIEPSAGGS [r16_95_TrROS_Hall] | 4.27 ± 0.19 kcal/mol | 3.94 ± 0.16 kcal/mol | 4.41 ± 0.2 kcal/mol
2 | SAGGMMKLNPKTLETKTTTVPLPDGSTVTLTTKLVELKFPNGEVELVTLTVETFPSEPTLTVLEEKPLSAGG [r19_158_JUSTAS] | 0.341 ± 0.11 kcal/mol | -0.0226 ± 0.083 kcal/mol | 0.45 ± 0.1 kcal/mol
3 | SAGGMMTIEELKKLPPGAKVGDKIKIRNPATGETFTVTVLPDGRIKIEVDGKIYELPPGAEIVEIEKSAGGS [r8_162_TrROS_Hall] | 2.17 ± 0.13 kcal/mol | 1.93 ± 0.086 kcal/mol | 2.36 ± 0.076 kcal/mol
4 | SAGGMMTPVSEETLPDGSKVLVEENPATGERTVTTLNPATGTVTTETLKRVPGENAWTLLSKTTTPAPSAGG [r19_249_JUSTAS] | 1.94 ± 0.041 kcal/mol | 2.033 ± 0.018 kcal/mol | 1.83 ± 0.02 kcal/mol
5 | SAGGMMYLKLKVKNKNGEEIEVLIEFDEKTGKAYIYNKKTGKKIEMTLEELLKQENIEIEEIEPLPEPSAGG [r13_994_TrROS_Hall] | 4.07 ± 0.13 kcal/mol | 2.89 ± 0.12 kcal/mol | 4.29 ± 0.12 kcal/mol
6 | SAGGMNISIEPIGRDNDRWYYMITFPGDANEIKDFIEEFLPPGLPIKVKVLEVDPENGHVTVMIEIPRSAGG [r13_491_TrROS] | 3.24 ± 0.058 kcal/mol | 2.21 ± 0.042 kcal/mol | 3.58 ± 0.043 kcal/mol
7 | SAGGMPAKAVTTKLPDGTDRITVTTVGSGKSATIPVPAGELKVIEIEEGEETLSVSFVEVGPDNPELGSAGG [r13_122_TrMRF] | 0.104 ± 0.056 kcal/mol | -0.426 ± 0.044 kcal/mol | 0.374 ± 0.014 kcal/mol
8 | SAGGMPEGMVVLRIRVRVEKVEVRRDPAVPGRVSRRVEVREVEIELVVDSREALEALRELGFEIEEVSAGGS [r8_482_TrROS_Hall] | 4.22 ± 0.08 kcal/mol | 3.79 ± 0.099 kcal/mol | 4.43 ± 0.11 kcal/mol
9 | SAGGMPEKVVVLRIRVTIRRDGEEEEIELEIRLPEEGQELTEEQLLALLRELLPPGYEIRRVEIEELSAGGS [r16_407_TrROS_Hall] | 4.73 ± 0.048 kcal/mol | 4.63 ± 0.077 kcal/mol | 4.755 ± 0.043 kcal/mol
10 | SAGGMPEPRPIPLTLTLLVDPEDPESVEEKLREFFEAFGADEITRVERELLPDGRALVTAEVLVNEPVSAGG [r13_222_TrMRF] | 1.15 ± 0.061 kcal/mol | 1.03 ± 0.03 kcal/mol | 1.17 ± 0.043 kcal/mol
11 | SAGGMPEVKIKVEITEIKVDKETGKTVTIRIKSVEITTADGRKYRVEKEIRIRPDGSIEVKVKVEELPSAGG [r13_917_TrROS_Hall] | 3.75 ± 0.12 kcal/mol | 2.75 ± 0.089 kcal/mol | 4.21 ± 0.14 kcal/mol
12 | SAGGMPIKSKKEAEEFIKKGGAKYLSKTKVKVKGEEKEKEFEVYEFVFKDPKTNKPILVVVPKEYIGSAGGS [r16_271_TrMRF] | 0.886 ± 0.23 kcal/mol | -0.0462 ± 0.2 kcal/mol | 1.27 ± 0.15 kcal/mol
13 | SAGGMPKIVEIEILSEEYDPSTGVRTYTAKVTYPDGTEEVVTIPVDLTDGNATEEEVKKRVEELVLESAGGS [r16_221_JUSTAS] | 3.76 ± 0.13 kcal/mol | 3.95 ± 0.22 kcal/mol | 3.66 ± 0.11 kcal/mol
14 | SAGGMPKPVTLPAVIELGAGPAIAVEEFPETGKLVFVFPPTHRIFVFDPNGKLVAEVDVPPDVPVSAVSAGG [r13_507_TrMRF] | 0.931 ± 0.15 kcal/mol | 0.901 ± 0.053 kcal/mol | 0.973 ± 0.31 kcal/mol
15 | SAGGMPKTITVERTLDVDPAVLASTTPEELVARVVEELRAEGVPISSVDPQTITRGATTVTVRVTLLESAGG [r13_432_JUSTAS] | 2.08 ± 0.029 kcal/mol | 1.662 ± 0.014 kcal/mol | 2.322 ± 0.023 kcal/mol
16 | SAGGMPPDARKLIREIAQDFGMSDIEPDEEGHVRINMPNPMMIQVDVENGEPKIKIYNNNKWREIPISAGGS [r16_296_TrROS] | 0.437 ± 0.13 kcal/mol | 0.355 ± 0.079 kcal/mol | 0.411 ± 0.31 kcal/mol
17 | SAGGMPPGQVVRLRLERVSPTWVRLYFPETGEVLYFPVRPDATLAEAEAIARELAERLGYPVEIETVSAGGS [r16_446_TrMRF] | 3.8 ± 0.07 kcal/mol | 3.76 ± 0.077 kcal/mol | 3.779 ± 0.014 kcal/mol
18 | SAGGMPPVVLEYEIDIKPDPNETLEDVLEKAEEFVEELKEAFPELDLKEVKVEVDPEKGKVKITVVFPSAGG [r13_1011_TrMRF] | 1.92 ± 0.12 kcal/mol | 1.77 ± 0.11 kcal/mol | 1.95 ± 0.14 kcal/mol
19 | SAGGMPREVAKEMIENDKDAKVTFTIYRFPDGPVPSVTVEVIEADVKDPDAFLESVPEGWLVLVEPASAGGS [r16_116_TrMRF] | 0.769 ± 0.085 kcal/mol | 0.245 ± 0.13 kcal/mol | 1.17 ± 0.11 kcal/mol
20 | SAGGMPVPVTFPFAGADEVIAFATALEELVNAPVGLTLISPSGEEREVGDPDSIVDEDGFTVRVTVPASAGG [r13_620_TrMRF] | 0.921 ± 0.039 kcal/mol | 1.38 ± 0.015 kcal/mol | -0.382 ± 0.16 kcal/mol
21 | SAGGMPVTLEIVLPNLHDVLGPEFFDALKNITVPNGTPIKKITVKPIGDKTVILIEVDSPEDAKDILGSAGG [r13_269_TrMRF] | 1.58 ± 0.15 kcal/mol | 1.44 ± 0.12 kcal/mol | 1.66 ± 0.17 kcal/mol

Row | Sequence | folding stability dG unfold [1] | folding stability dG unfold [2] | folding stability dG unfold [3]
22 | SAGGMPVTTTPRTVELPDRRVEVIDRTFPNGPPRTTVVVRDPAGNLVATREFTGPEWEEWLRAEGALLSAGG [r19_90_JUSTAS] | 0.707 ± 0.048 kcal/mol | -0.606 ± 0.17 kcal/mol | 1.06 ± 0.035 kcal/mol
23 | SAGGMRIRIVVPPEMSPEEIAELLKKLFPDYEIKVEVKTVKVKVKDEETGEEYEVEVLVVEIEIKEKSAGGS [r16_828_TrROS_Hall] | 3.74 ± 0.14 kcal/mol | 3.61 ± 0.18 kcal/mol | 3.78 ± 0.12 kcal/mol
24 | SAGGMRIYIPPELPEEKVEEIREEAEEEFPVEVTLERFPEPGYVVLEFEGEEEELYRRIEEKIREKGSAGGS [r16_227_TrMRF] | 1.55 ± 0.41 kcal/mol | 1.17 ± 0.16 kcal/mol | 1.42 ± 0.35 kcal/mol
25 | SAGGMRPMVVTVRYPDGSVQTLVADYDPDTDVIRFPFPSDGTERDIPAGEWREDPDYQVLSETPLSLESAGG [r13_994_JUSTAS] | 0.967 ± 0.052 kcal/mol | 1.58 ± 0.045 kcal/mol | 0.0211 ± 0.11 kcal/mol
26 | SAGGMSALRIVAENLPEDARVVLPDGRVFPPGVELELPLEADLDVVVALDEDGRVHHVERVPLDRPLLSAGG [r13_441_TrMRF] | -0.389 ± 0.099 kcal/mol | -0.352 ± 0.16 kcal/mol | -0.501 ± 0.21 kcal/mol
27 | SAGGMSEEVRKLAEELAKKLNIEKVEVLPDGTVRITLKNGKKIEIKVEKVEVKEVKVEVEVEEVEEESAGGS [r16_296_TrROS_Hall] | 3.62 ± 0.49 kcal/mol | 2.55 ± 0.27 kcal/mol | 4.11 ± 0.28 kcal/mol
28 | SAGGMSVSITVTVTPTEVRVVENPTNGVNTAFTETTVTVTVNHPSSVSPEEKAALIAAVKAANPGAASAGGS [r8_306_JUSTAS] | 2.43 ± 0.49 kcal/mol | 2.86 ± 0.57 kcal/mol | 1.92 ± 0.57 kcal/mol
29 | SAGGMTAEEIAEALRERLRELFPPGAEIEVDEIEVEEVEVEEEPVELSEEERERVEKMPEEERERLLSAGGS [r16_272_TrROS_Hall] | 0.635 ± 0.33 kcal/mol | 1.27 ± 0.22 kcal/mol | -0.0968 ± 0.18 kcal/mol
30 | SAGGMTASSTTLPPSGITSQTTTDPATGVTTTTTRYPDGTVTTTTTTALPPPAAATTTTTTALPGSAAASAG [r5_766_JUSTAS] | 1.77 ± 0.086 kcal/mol | 1.93 ± 0.12 kcal/mol | 1.68 ± 0.07 kcal/mol
31 | SAGGMTETITGEFDDEEEAIAYAKKIVKEKYPNKNVTMEIETTYDPKTGKYKVTATITIPDEGEEHHSAGGS [r8_17_JUSTAS] | 5.94 ± 0.37 kcal/mol | 4.72 ± 0.35 kcal/mol | 5.61 ± 0.18 kcal/mol
32 | SAGGMTFSGVTREQALAIAKALEEEGYVLERVEVVEFPEDGTVRALVVVRDPETDEPLAEIELDIKPSAGGS [r16_750_TrMRF] | 1.7 ± 0.055 kcal/mol | 1.53 ± 0.017 kcal/mol | 1.81 ± 0.036 kcal/mol
33 | SAGGMTIEKEDGKYRITITINGKTYTFTIPKELENKTEEEIAAELAAELAEKFGLKEITEIKIEKVPSAGGS [r8_402_TrROS_Hall] | 3.14 ± 0.1 kcal/mol | 2.38 ± 0.096 kcal/mol | 3.559 ± 0.025 kcal/mol
34 | SAGGMTIELTIVAETEEEAEKAAEELARKLAELYPDLKVKVTVEKVEVKDEETGKTYLVYKVRIEIEPSAGG [r13_545_TrROS_Hall] | 4.95 ± 0.11 kcal/mol | 4.47 ± 0.19 kcal/mol | 4.96 ± 0.11 kcal/mol
35 | SAGGMTILFEADSLEEARQAVEDLLRDLGIPAIAERITVEERTFRLPAGPGTRRFVLVTIDLRLEPPSAGGS [r16_587_TrMRF] | 2.62 ± 0.034 kcal/mol | 2.68 ± 0.031 kcal/mol | 2.522 ± 0.021 kcal/mol
36 | SAGGMTITIPPSVPDADVERIVEEAEATFPQPVTLTRDPGRGRWTLTFDGPEDERREAIEALAARLASAGGS [r16_227_JUSTAS] | 0.434 ± 0.12 kcal/mol | 0.0735 ± 0.14 kcal/mol | 0.565 ± 0.19 kcal/mol
37 | SAGGMTITIPVTESGSLEEALALAERVAEEARAAGLEEVTITVTVYDPANGEVLYTKTRRVPVRPEASAGGS [r8_33_JUSTAS] | 2.21 ± 0.031 kcal/mol | 2.03 ± 0.032 kcal/mol | 2.274 ± 0.0077 kcal/mol
38 | SAGGMTIVEKDGKLVLKITVTVPPGTTVEELKNALKELFGVEEVKVVKIEKNENGEITITVEAVFPKSAGGS [r16_234_TrROS_Hall] | 3.03 ± 0.11 kcal/mol | 2.59 ± 0.12 kcal/mol | 3.31 ± 0.13 kcal/mol
39 | SAGGMTIVLPNGITLTFYPDRTVTATVDFPGRPLTLTLDAASLAEAVAAVERAAAEWAAPAPPVVDLSSAGG [r13_896_TrMRF] | 2.72 ± 0.042 kcal/mol | 2.56 ± 0.042 kcal/mol | 2.824 ± 0.013 kcal/mol
40 | SAGGMTKTVTVTIEIDVPPGVTVDELIEKLKELAEKLGLTVKVTSVTVEEVDGKLVVTVEVEIEPPEPSAGG [r13_351_TrROS_Hall] | 2.5 ± 0.31 kcal/mol | 2.58 ± 0.25 kcal/mol | 2.6 ± 0.18 kcal/mol
41 | SAGGMTLITIEHPDGEVIEFELPGATEEEAEAIAEEIAKRHDPGKVKVTFEKVPEKGVDPTKPVAVKSAGGS [r8_167_JUSTAS] | 0.917 ± 0.099 kcal/mol | -0.128 ± 0.073 kcal/mol | 1.39 ± 0.038 kcal/mol
